In patent US20260022175A1 (Chugai, published 2026):
Blank lines part the entries; values can stand above or below the binder they belong to.

Assays:
[1] = molecular target: T1, hCTLA4-His-BAP (human CTLA4 extracellular region with C-terminal His-tag and BAP-tag) (human, biotin on the BAP-tag); test: SPR 37C, hCTLA4 1000 nM, ATP 100 µM; ATP 100 µM; binding amount at 1000 nM hCTLA4
T1 construct: also called hCTLA4-His-Biotin

[2] = molecular target: T1, hCTLA4-His-BAP (human CTLA4 …); test: SPR 37C, ATP 100 µM; ATP 100 µM
[3] = molecular target: T1, hCTLA4-His-BAP (human CTLA4 …); test: SPR 37C, hCTLA4 1000 nM, no ATP; no ATP; binding amount at 1000 nM hCTLA4
[4] = molecular target: T1, hCTLA4-His-BAP (human CTLA4 …); test: SPR 37C, hCTLA4 1000 nM, ATP 1 µM; ATP 1 µM; binding amount at 1000 nM hCTLA4
[5] = molecular target: T1, hCTLA4-His-BAP (human CTLA4 …); test: SPR 37C, hCTLA4 1000 nM, ATP 10 µM; ATP 10 µM; binding amount at 1000 nM hCTLA4
[6] = molecular target: T2, human FcγRIIa R extracellular domain (human, UniProt P12318 34-217); test: SPR Biacore 8K+; KD for FcγRIIb divided by KD for this FcγR;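 note: antibodies captured on an anti-human Fab kappa SA chip with soluble human FcγR ectodomains flowed over, FcγRIIb KD from steady-state fit, other FcγR KD from Langmuir model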
T2 construct: extracellular domain; also called hFcγR IIa R
T2 sequence (looked up): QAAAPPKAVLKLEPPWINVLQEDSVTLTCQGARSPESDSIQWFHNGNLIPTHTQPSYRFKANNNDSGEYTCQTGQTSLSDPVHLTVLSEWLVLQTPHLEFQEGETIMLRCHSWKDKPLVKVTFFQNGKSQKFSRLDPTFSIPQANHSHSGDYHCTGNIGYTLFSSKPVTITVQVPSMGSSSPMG

[7] = molecular target: T3, human FcγRIIIa V extracellular domain (human, UniProt P08637 17-208); test: as above
T3 construct: extracellular domain; also called hFcγR IIIa V

[8] = molecular target: T4, human FcγRIIIa F extracellular domain (human, UniProt P08637 17-208); test: as above
T4 construct: extracellular domain; also called hFcγR IIIa F

[9] = molecular target: T5, human FcγRIIa H extracellular domain (human, UniProt P12318 34-217); test: as above
T5 construct: extracellular domain; also called hFcγR IIa H
T5 sequence (looked up): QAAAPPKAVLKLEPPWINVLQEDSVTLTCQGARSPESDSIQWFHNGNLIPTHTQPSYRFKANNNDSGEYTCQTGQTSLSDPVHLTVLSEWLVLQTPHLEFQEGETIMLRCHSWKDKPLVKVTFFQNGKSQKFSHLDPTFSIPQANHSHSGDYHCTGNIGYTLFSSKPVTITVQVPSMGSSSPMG

[10] = molecular target: T6, human C1q protein (Calbiochem) (human, UniProt P02745 23-245; P02746 28-253; P02747 29-245); test: ELISA: antibody coated on the plate at the varied concentration, hC1q 3 µg/mL added, detected with HRP-conjugated anti-hC1q antibody, O.D (450-690nm)
T6 construct: bought; also called hC1q

[11] = molecular target: hFcγRIIIaV on hFcγRIIIaV-expressing Jurkat cells (human, UniProt P08637 17-254); test: cell-based or functional assay
[12] = molecular target: T7, human FcγRIa extracellular domain (human, UniProt P12314 16-292); test: SPR Biacore 8K+; KD of G1d divided by KD of this antibody;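 note: antibodies captured on an anti-Fab-kappa streptavidin chip, soluble FcγR ectodomains flowed over, KD by steady-state fit for FcγRIIb and Langmuir kinetic model for the other receptors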
T7 construct: extracellular domain; also called hFcγR Ia; hFcγRIa

[13] = molecular target: T2, human FcγRIIa R extracellular domain; test: as above
[14] = molecular target: T8, human FcγRIIb extracellular domain (human, UniProt P31994 43-217); test: as above
T8 construct: extracellular domain; also called hFcγR IIb
T8 sequence (looked up): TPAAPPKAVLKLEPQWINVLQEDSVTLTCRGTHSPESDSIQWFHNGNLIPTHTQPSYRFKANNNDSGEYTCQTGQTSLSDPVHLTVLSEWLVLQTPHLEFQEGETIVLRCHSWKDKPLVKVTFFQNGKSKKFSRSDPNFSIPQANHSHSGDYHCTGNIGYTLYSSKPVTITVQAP

[15] = molecular target: T3, human FcγRIIIa V extracellular domain; test: as above
[16] = molecular target: T4, human FcγRIIIa F extracellular domain; test: as above
[17] = molecular target: T5, human FcγRIIa H extracellular domain; test: as above
[18] = molecular target: T7, human FcγRIa extracellular domain; test: SPR Biacore 8K+, antibody captured, FcγR as analyte, 1:1 Langmuir model;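 note: antibodies captured on a streptavidin chip through a biotinylated anti-human Fab kappa reagent, with FcγR extracellular domains injected in pH 7.4 phosphate buffer at 25 °C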
[19] = molecular target: T2, human FcγRIIa R extracellular domain; test: as above
[20] = molecular target: T3, human FcγRIIIa V extracellular domain; test: as above
[21] = molecular target: T4, human FcγRIIIa F extracellular domain; test: as above
[22] = molecular target: T5, human FcγRIIa H extracellular domain; test: as above
[23] = molecular target: T8, human FcγRIIb extracellular domain; test: SPR Biacore 8K+, antibody captured, FcγR as analyte, steady state affinity model
[24] = molecular target: T9, cynomolgus monkey CTLA4 (CyCTLA4-His-BAP) (cynomolgus monkey); test: SPR Biacore T200, 37C, antibody captured, ATP 100 uM
human CTLA4 [25] = molecular target: T10, human CTLA4 (human); test: as above
T10 construct: also called hCTLA4; hCTLA4-His-BAP

human CTLA4 [26] = molecular target: T10, human CTLA4; test: SPR Biacore T200, 37C, antibody captured, ATP 1 uM
human CTLA4 [27] = molecular target: T10, human CTLA4; test: SPR Biacore T200, 37C, antibody captured, no ATP, steady state model
human CTLA4 [28] = molecular target: T10, human CTLA4; test: SPR Biacore T200, 37C, antibody captured, ATP 10 uM
human CTLA4 [29] = molecular target: T10, human CTLA4; test: SPR Biacore T200, 37C, antibody captured, AMP 10 uM
[30] = molecular target: T9, cynomolgus monkey CTLA4 …; test: SPR Biacore T200, 37C, antibody captured, ATP 10 uM
human CTLA4 [31] = molecular target: T10, human CTLA4; test: as above; remark: listed apart in the source
[32] = molecular target: T9, cynomolgus monkey CTLA4 …; test: SPR Biacore T200, 37C, antibody captured, ATP 1 uM
human CTLA4 [33] = molecular target: T10, human CTLA4; test: SPR Biacore T200, 37C, antibody captured, ATP 1 uM; remark: listed apart in the source
human CTLA4 [34] = molecular target: T10, human CTLA4; test: SPR Biacore T200, 37C, antibody captured, ADP 10 uM;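 note: antibodies held on a Protein G CM3 chip, human CTLA4 as analyte in ACES pH 7.4 buffer, rates from a global 1:1 Langmuir fit, Kd from rates or steady state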
human CTLA4 [35] = molecular target: T10, human CTLA4; test: SPR Biacore T200, 37C, antibody captured, ATP 10 uM; remark: listed apart in the source

T4 sequence (P08637 17-208): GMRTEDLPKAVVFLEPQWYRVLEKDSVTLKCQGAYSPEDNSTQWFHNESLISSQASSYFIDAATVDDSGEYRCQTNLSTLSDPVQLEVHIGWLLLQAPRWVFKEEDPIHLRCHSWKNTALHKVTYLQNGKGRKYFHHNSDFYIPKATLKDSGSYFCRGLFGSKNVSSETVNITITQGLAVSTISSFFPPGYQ
T9 sequence (chain, as listed by the source limits assumed): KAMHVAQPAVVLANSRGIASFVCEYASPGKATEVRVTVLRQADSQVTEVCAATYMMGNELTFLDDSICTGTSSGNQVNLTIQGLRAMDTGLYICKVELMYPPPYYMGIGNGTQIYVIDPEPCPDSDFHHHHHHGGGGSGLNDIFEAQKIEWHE
T10 sequence (chain, as listed by the source limits assumed): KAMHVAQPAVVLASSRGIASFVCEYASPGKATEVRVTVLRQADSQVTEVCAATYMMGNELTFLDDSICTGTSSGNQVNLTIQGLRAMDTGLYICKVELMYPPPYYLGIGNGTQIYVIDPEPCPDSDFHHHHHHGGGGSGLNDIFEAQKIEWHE
T3 sequence (P08637 17-208 F176V limits assumed): as the sequence (P08637 17-208) above, with F160V counted along it
T7 sequence (P12314 16-292): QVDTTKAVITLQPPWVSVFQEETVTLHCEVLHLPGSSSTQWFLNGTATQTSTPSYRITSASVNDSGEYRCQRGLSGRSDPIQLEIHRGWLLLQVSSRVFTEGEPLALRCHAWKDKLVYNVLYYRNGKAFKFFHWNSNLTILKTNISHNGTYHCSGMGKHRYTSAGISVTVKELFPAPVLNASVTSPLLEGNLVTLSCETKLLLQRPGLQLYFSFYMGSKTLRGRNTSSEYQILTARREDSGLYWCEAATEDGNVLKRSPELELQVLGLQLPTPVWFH
T6 sequence (P02745 23-245 limits assumed, chain 1 of 3): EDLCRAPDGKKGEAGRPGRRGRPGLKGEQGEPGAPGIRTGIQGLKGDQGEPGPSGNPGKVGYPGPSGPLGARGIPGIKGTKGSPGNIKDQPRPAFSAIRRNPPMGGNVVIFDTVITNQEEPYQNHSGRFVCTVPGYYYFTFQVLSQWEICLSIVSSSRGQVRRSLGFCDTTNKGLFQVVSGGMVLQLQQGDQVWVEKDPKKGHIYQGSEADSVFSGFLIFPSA
T6 sequence (P02746 28-253 limits assumed, chain 2 of 3): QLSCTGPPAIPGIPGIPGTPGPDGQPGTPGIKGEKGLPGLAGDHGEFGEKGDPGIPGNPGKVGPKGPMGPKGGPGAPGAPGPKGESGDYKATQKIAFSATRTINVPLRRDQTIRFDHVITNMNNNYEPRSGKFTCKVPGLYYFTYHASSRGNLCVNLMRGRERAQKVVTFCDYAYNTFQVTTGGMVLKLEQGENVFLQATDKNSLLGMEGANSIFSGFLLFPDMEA
T6 sequence (P02747 29-245 limits assumed, chain 3 of 3): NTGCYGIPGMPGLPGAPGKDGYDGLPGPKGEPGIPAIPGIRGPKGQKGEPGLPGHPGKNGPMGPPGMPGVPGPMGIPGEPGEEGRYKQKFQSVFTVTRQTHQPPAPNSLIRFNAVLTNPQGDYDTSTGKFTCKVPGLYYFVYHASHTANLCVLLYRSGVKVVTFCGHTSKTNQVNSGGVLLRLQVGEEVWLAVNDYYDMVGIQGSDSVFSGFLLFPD
hFcγRIIIaV on hFcγRIIIaV-expressing Jurkat cells, sequence (P08637 17-254, form in doubt): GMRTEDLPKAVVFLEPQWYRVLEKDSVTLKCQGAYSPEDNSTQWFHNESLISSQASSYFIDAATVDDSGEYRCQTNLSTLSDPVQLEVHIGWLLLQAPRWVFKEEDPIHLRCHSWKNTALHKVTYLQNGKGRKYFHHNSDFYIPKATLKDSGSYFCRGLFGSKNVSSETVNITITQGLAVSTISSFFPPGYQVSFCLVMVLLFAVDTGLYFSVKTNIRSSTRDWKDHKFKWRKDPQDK

B1: 04H1077-G1m/04L1034-lam1 (antibody, human IgG1, lambda, V domains shown)
VH: EVQLVESGGDLVKPGGGLRLSCAASGFTFSSRTMNWVRQAPGKGLEWVSSISTRSGYIYYAESVKGRFTISRDNAKNSLYLQMNSLRAEDTAVYYCARYGKREDMLWVFDYWGQGTLVTVSS
VL: QSALTQPPSASGSPGQTVTISCDGPSTDVGDYNWVSWYQQHPGKAPKLMIYFTSKKPSGVPDRFSGSKSGNTASLTVSGLQAEDEADYFCSTYAAPLGPMFGGGTKLTVLG
Binding to Human CTLA4 [1]: 0.114 per unit amount of antibody
Kd [2]: 320 nM
Binding to Human CTLA4 [3]: 0.004 per unit amount of antibody
Binding to Human CTLA4 [4]: 0.007 per unit amount of antibody
Binding to Human CTLA4 [5]: 0.041 per unit amount of antibody

B4: 04H1656-G1m/04L1612-lam1 (antibody, human IgG1, lambda)
heavy: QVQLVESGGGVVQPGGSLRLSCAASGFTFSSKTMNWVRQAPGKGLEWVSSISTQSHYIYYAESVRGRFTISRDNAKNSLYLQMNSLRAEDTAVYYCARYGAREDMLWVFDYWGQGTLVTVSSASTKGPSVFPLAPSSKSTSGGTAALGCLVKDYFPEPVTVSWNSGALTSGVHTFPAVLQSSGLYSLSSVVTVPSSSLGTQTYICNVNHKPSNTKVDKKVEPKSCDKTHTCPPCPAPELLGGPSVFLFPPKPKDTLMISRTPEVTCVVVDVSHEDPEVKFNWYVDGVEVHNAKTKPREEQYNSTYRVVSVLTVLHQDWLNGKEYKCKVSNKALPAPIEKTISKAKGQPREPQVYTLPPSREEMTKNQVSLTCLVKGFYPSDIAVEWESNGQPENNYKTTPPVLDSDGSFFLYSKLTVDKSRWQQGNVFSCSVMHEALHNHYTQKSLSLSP
light: QSALTQPPSASGSPGQSVTISCEGPSTGVGDYTYVHWYQQHPGKAPKLMIYFTSKKPSGVPDRFSGSKSGNTASLTVSGLQAEDEADYYCQTYAAPLGPMFGGGTKLTVLGQPKAAPSVTLFPPSSEELQANKATLVCLISDFYPGAVTVAWKADSSPVKAGVETTTPSKQSNNKYAASSYLSLTPEQWKSHRSYSCQVTHEGSTVEKTVAPTECS
Kd [24]: 16 nM
Kd (human CTLA4 [25]): 7.8 nM
Kd (human CTLA4 [26]): 160 nM
Kd (human CTLA4 [27]): 7600 nM
Kd (human CTLA4 [28]): 26 nM
koff (human CTLA4 [28]): 0.0029 s⁻¹
kon (human CTLA4 [28]): 110000 M⁻¹ s⁻¹
Kd (human CTLA4 [29]): 130 nM
koff (human CTLA4 [29]): 0.02 s⁻¹
kon (human CTLA4 [29]): 150000 M⁻¹ s⁻¹
Kd [30]: 41 nM
Kd (human CTLA4 [31]): 25 nM
Kd [32]: 160 nM
Kd (human CTLA4 [33]): 95 nM
Kd (human CTLA4 [34]): 42 nM
koff (human CTLA4 [34]): 0.0064 s⁻¹
kon (human CTLA4 [34]): 150000 M⁻¹ s⁻¹
Kd (human CTLA4 [35]): 32 nM

Continued, values first:

A/I ratio (KD for FcγRIIb divided by KD for each FcγR) [6]: 6.1
A/I ratio (KD for FcγRIIb divided by KD for each FcγR) [7]: 28.1
A/I ratio (KD for FcγRIIb divided by KD for each FcγR) [8]: 3.4
A/I ratio (KD for FcγRIIb divided by KD for each FcγR) [9]: 8.9
binding result [10]: binds
EC50 value (hFcγRIIIaV ADCC Reporter Bioassay, Hepa1-6/hEREG target cells) [11]: 0.0463 µg/mL
Relative value to KD between G1d and hFcgRs [12]: 1
Relative value to KD between G1d and hFcgRs [13]: 1
Relative value to KD between G1d and hFcgRs [14]: 1
Relative value to KD between G1d and hFcgRs [15]: 1
Relative value to KD between G1d and hFcgRs [16]: 1
Relative value to KD between G1d and hFcgRs [17]: 1
Kd [18]: 0.0901 nM
Kd [19]: 1660 nM
Kd [20]: 358 nM
Kd [21]: 2960 nM
Kd [22]: 1120 nM
Kd [23]: 10100 nM
B2: H240-G1d/L73-k0 (antibody, human IgG1, kappa)
heavy: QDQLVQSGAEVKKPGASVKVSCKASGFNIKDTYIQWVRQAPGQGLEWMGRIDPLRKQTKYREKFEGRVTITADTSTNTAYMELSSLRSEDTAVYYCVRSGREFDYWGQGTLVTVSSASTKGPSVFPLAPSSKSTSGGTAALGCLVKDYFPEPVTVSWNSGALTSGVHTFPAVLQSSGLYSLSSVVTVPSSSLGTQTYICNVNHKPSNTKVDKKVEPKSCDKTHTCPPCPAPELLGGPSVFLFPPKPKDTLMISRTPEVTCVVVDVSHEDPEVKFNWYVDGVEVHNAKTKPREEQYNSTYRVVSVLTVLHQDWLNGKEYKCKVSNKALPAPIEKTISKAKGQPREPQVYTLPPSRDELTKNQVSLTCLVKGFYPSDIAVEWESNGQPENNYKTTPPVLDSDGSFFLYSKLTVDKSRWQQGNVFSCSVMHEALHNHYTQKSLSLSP
light: DIQMTQSPSSLSASVGDRVTITCRASQDIHKYIAWYQQKPGQAPRLLIQYTSTLQPGVPSRFSGSGSGTDYTFTISSLQPEDIATYYCLQYEQLRTFGGGTKVEIKRTVAAPSVFIFPPSDEQLKSGTASVVCLLNNFYPREAKVQWKVDNALQSGNSQESVTEQDSKDSTYSLSSTLTLSKADYEKHKVYACEVTHQGLSSPVTKSFNRGEC
notes: Anti-human Epiregulin antibody with the human IgG1 constant region G1d (C-terminal Gly and Lys deleted); also called EGL-G1d

binding result [10]: no binding (tested: 30 µg/mL)
B3: EGL-G4d (antibody, human IgG4 S228P, kappa)
heavy: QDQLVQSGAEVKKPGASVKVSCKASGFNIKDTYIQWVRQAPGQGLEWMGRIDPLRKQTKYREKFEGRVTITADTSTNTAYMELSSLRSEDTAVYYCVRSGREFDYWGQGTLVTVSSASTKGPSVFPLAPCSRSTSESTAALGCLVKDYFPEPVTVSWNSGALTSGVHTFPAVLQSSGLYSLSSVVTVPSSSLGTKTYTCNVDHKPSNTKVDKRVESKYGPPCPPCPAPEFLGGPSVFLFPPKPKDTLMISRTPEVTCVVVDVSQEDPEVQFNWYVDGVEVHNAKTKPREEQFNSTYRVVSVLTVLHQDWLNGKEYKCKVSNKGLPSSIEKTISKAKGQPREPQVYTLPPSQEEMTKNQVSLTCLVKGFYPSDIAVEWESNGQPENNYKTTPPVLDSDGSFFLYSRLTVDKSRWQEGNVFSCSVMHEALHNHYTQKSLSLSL
light: DIQMTQSPSSLSASVGDRVTITCRASQDIHKYIAWYQQKPGQAPRLLIQYTSTLQPGVPSRFSGSGSGTDYTFTISSLQPEDIATYYCLQYEQLRTFGGGTKVEIKRTVAAPSVFIFPPSDEQLKSGTASVVCLLNNFYPREAKVQWKVDNALQSGNSQESVTEQDSKDSTYSLSSTLTLSKADYEKHKVYACEVTHQGLSSPVTKSFNRGEC
